Data from the supplement of paper PMC10065799, “High-throughput profiling of sequence recognition by tyrosine kinases and SH2 domains using bacterial peptide display” (eLife, 2023).

Key:
AncSZ = assay: phosphorylation enrichment, bacterial display (enrichment ratio); higher = better substrate or ligand; peptides without Tyr show the background
EPHB1 = EPHB1 (UniProt P54762); assay: as above
EPHB2 = EPHB2 (UniProt P29323); assay: as above
FGFR1 = FGFR1 (UniProt P11362); assay: as above
FGFR3 = FGFR3 (UniProt P22607); assay: as above
FGFR3, sequence (P22607 whole entry, looked up): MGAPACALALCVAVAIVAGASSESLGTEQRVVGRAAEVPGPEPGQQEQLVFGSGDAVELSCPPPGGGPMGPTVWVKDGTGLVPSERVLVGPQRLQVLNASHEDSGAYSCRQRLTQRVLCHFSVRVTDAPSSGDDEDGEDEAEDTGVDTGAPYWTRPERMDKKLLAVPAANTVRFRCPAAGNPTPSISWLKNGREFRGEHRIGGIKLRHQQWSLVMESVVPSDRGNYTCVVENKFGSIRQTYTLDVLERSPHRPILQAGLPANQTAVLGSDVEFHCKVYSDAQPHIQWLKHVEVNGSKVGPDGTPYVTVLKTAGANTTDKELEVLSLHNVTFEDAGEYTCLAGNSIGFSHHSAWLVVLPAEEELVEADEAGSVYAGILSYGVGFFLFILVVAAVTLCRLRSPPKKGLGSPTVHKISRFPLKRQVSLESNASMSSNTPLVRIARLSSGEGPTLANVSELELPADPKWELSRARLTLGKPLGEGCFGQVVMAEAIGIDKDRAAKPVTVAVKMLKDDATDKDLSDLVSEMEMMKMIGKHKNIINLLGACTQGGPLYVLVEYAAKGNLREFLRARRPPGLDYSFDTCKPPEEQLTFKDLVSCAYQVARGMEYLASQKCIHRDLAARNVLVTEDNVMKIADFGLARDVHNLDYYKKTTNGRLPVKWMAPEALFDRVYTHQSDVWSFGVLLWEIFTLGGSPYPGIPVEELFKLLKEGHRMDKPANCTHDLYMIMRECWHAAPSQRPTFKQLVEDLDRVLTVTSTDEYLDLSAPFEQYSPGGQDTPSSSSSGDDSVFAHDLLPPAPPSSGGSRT

Fer (mouse) = assay: as above
Fes = Fes (UniProt P07332); assay: as above
Fes, sequence (P07332 whole entry, looked up): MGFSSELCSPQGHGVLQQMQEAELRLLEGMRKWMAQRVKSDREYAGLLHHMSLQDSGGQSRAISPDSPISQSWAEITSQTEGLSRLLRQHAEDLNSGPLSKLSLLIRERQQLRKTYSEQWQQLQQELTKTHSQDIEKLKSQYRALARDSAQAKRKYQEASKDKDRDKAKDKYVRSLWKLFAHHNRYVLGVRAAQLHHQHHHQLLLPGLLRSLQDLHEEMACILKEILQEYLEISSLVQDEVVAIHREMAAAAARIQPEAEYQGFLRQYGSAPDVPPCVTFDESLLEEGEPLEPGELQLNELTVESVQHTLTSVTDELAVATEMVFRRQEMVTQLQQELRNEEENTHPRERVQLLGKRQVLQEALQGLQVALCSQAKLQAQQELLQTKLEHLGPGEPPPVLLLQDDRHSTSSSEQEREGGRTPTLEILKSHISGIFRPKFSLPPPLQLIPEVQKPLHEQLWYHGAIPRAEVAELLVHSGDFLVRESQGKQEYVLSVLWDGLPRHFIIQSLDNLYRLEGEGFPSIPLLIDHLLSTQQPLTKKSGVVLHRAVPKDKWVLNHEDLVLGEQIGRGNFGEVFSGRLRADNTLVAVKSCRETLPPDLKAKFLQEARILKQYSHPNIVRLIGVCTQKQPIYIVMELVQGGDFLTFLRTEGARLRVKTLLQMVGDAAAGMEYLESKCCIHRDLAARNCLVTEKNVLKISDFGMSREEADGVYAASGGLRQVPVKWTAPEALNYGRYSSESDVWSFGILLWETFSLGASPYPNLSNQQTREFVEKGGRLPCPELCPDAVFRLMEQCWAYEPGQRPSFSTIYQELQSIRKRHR

Fyn = Fyn (UniProt P06241); assay: as above
Fyn, sequence (P06241 whole entry, looked up): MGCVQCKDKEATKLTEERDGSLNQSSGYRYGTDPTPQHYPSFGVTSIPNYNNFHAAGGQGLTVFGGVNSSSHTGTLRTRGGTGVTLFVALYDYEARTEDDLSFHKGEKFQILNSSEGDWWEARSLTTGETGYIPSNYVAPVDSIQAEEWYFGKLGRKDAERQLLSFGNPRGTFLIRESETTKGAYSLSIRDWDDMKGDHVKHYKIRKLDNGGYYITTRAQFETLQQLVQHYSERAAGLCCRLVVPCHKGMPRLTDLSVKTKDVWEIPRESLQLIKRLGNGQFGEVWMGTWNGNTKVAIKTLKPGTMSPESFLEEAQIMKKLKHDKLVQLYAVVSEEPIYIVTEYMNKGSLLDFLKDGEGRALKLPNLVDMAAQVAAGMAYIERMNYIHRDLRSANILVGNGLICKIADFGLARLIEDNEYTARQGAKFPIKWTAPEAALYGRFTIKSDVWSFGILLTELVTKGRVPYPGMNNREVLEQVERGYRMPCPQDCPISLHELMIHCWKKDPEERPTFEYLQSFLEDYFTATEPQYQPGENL

Hck = Hck (UniProt P08631); assay: as above
Hck, sequence (P08631 whole entry, looked up): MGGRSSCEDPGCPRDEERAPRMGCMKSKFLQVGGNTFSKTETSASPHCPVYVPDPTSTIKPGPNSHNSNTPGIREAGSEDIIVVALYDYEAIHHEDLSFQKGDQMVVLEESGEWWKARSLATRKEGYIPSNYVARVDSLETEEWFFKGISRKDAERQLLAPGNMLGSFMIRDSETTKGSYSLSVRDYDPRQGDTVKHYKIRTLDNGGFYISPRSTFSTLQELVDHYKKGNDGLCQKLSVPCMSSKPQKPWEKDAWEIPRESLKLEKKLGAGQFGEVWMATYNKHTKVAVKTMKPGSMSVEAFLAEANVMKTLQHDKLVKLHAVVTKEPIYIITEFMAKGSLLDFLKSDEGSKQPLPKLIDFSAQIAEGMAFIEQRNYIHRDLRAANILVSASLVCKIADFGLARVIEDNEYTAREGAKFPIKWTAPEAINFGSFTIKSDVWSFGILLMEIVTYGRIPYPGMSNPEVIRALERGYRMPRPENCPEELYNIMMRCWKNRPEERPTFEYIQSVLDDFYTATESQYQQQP

Jak2 = Jak2 (UniProt O60674); assay: as above
Jak2, sequence (O60674 whole entry, looked up): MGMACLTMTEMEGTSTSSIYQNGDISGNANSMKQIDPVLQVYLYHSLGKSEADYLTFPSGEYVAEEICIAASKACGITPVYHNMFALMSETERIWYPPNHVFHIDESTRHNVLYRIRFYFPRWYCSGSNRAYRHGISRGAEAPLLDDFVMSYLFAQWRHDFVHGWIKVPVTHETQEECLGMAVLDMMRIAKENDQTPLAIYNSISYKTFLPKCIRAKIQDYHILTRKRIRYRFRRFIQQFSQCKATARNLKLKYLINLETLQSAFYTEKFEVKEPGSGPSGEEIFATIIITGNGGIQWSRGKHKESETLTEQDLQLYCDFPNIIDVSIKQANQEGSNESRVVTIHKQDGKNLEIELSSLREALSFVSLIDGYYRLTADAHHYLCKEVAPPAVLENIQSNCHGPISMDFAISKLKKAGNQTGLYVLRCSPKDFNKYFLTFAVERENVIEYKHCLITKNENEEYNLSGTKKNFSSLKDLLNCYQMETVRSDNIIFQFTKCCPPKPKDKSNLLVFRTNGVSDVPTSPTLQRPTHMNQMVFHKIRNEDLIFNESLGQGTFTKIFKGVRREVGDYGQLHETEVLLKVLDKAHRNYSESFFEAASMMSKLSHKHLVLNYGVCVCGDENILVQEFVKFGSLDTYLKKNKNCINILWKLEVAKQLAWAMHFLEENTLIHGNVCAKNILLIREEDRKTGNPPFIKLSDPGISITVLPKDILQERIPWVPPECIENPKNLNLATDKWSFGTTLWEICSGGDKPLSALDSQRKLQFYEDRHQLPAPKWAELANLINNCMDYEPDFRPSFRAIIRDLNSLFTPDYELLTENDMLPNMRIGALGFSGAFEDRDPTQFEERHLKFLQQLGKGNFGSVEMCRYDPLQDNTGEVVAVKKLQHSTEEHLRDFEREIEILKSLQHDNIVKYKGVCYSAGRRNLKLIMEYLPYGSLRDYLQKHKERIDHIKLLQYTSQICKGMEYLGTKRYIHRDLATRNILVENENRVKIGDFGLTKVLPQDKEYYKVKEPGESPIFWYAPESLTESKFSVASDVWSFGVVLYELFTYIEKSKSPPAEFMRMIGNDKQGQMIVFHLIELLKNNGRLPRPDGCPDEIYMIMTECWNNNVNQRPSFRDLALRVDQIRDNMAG

MERTK = MERTK (UniProt Q12866); assay: as above
MERTK, sequence (Q12866 whole entry, looked up): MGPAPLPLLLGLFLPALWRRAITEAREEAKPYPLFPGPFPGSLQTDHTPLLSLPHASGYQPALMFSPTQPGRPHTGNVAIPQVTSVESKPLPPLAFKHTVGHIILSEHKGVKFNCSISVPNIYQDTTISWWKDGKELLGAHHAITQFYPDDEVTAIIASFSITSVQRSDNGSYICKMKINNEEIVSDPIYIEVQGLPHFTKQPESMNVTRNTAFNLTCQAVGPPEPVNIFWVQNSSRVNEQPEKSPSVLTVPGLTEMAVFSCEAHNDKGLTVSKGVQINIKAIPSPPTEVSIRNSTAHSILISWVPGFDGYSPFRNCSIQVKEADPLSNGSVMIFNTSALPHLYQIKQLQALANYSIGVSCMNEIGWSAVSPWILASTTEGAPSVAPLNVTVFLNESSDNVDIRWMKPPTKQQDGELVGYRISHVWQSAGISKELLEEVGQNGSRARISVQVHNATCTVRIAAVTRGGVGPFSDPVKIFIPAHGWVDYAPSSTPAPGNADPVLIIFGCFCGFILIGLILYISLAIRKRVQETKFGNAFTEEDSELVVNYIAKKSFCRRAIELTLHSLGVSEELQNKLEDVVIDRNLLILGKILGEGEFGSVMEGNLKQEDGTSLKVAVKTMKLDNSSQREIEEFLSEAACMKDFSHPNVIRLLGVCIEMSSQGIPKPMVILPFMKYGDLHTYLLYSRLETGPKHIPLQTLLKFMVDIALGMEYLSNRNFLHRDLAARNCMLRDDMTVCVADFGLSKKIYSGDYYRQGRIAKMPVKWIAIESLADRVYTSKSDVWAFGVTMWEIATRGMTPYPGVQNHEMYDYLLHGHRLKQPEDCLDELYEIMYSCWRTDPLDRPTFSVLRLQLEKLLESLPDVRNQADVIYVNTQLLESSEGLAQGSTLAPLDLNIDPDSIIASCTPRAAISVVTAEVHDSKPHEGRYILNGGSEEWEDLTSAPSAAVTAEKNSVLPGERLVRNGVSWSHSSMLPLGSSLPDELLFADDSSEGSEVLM

c-Abl (mouse) = assay: as above
c-Src = assay: as above
Grb2 SH2 = Grb2 SH2 (UniProt P62993); assay: SH2 binding enrichment of the phosphorylated peptide, bacterial display (enrichment ratio); higher = better substrate or ligand; peptides without Tyr show the background
SHP2-C SH2 = assay: as above
c-Src SH2 = assay: as above
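Wherever SH2 binding enrichment of the phosphorylated peptide, bacterial display is given: peptide library displayed on the E. coli surface as eCPX fusions, selected cells deep-sequenced, score is each peptide's frequency after selection divided by its frequency in the input.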
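Wherever phosphorylation enrichment, bacterial display is given: 11-residue human phosphosite peptides and single-mutation variants displayed on the E. coli surface, counted by deep sequencing, each peptide's frequency after selection divided by its frequency in the unselected input library; frequency after pTyr selection over input frequency; kinase dosed for 20-30% of maximal phosphorylation in three min.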

SH2 binding enrichment (Grb2 SH2) | SH2 binding enrichment (SHP2-C SH2) | SH2 binding enrichment (c-Src SH2) | Sequence | phosphorylation enrichment (AncSZ) | phosphorylation enrichment (EPHB1) | phosphorylation enrichment (EPHB2) | phosphorylation enrichment (FGFR1) | phosphorylation enrichment (FGFR3) | phosphorylation enrichment (Fer (mouse)) | phosphorylation enrichment (Fes) | phosphorylation enrichment (Fyn) | phosphorylation enrichment (Hck) | phosphorylation enrichment (Jak2) | phosphorylation enrichment (MERTK) | phosphorylation enrichment (c-Abl (mouse)) | phosphorylation enrichment (c-Src)
0.824 | 0.593 | 0.4 | AASTDYYKRGD [PDHA1_Y242] | 0.83 | 0.51 | 0.45 | 0.592 | 0.586 | 0.515 | 0.811 | 0.597 | 0.568 | 0.811 | 0.511 | 0.615 | 0.523
0.923 | 0.863 | 0.58 | AAYNKYDQERF [CDC73_Y293_R292K] | 0.54 | 0.364 | 0.335 | 0.332 | 0.454 | 0.419 | 0.762 | 0.371 | 0.299 | 0.739 | 0.287 | 0.588 | 0.398
0.89 | 0.859 | 0.753 | ACVARYIFKRL [LPCAT3_Y348_W344C] | 0.979 | 0.407 | 0.51 | 0.502 | 0.553 | 0.492 | 0.841 | 0.635 | 0.426 | 0.683 | 0.492 | 0.606 | 0.545
0.649 | 0.515 | 0.439 | ADEQIYWQIAA [CSKtide_2014] | 2.59 | 2.64 | 1.37 | 7.87 | 6.65 | 2.25 | 1.56 | 5.62 | 4.33 | 1.58 | 3.12 | 5.09 | 4.66
0.805 | 0.656 | 0.457 | AEFGLYGAMVW [VSX2_Y222_R227W_YF] | 1.26 | 0.729 | 1.15 | 0.645 | 0.887 | 2.1 | 1.48 | 3.08 | 2.93 | 1.38 | 1.06 | 0.995 | 2.69
0.876 | 0.787 | 0.607 | AELVPYFMEHH [PTPN11_Y80_Q79P_YF] | 0.913 | 0.605 | 0.602 | 0.531 | 0.614 | 0.515 | 1.15 | 0.636 | 0.562 | 1.02 | 0.463 | 0.741 | 0.883
0.89 | 0.875 | 0.69 | AELVRYYMEHH [PTPN11_Y80_Q79R] | 0.856 | 1.03 | 0.857 | 0.623 | 0.673 | 0.457 | 1.12 | 0.514 | 0.683 | 0.865 | 0.639 | 0.421 | 0.486
0.732 | 0.888 | 0.547 | AGLEDYDRLRP [RAC3_Y64_Q61L] | 1.13 | 0.505 | 0.791 | 0.836 | 0.744 | 0.62 | 0.933 | 0.544 | 0.894 | 0.931 | 0.402 | 0.657 | 0.485
0.763 | 0.855 | 0.446 | AIIEEYLHLND [EIF4G1_Y1253] | 1.02 | 0.564 | 0.498 | 0.564 | 0.736 | 0.487 | 1.19 | 0.493 | 0.492 | 0.959 | 0.376 | 0.585 | 0.411
0.749 | 0.752 | 0.561 | AIIEEYLHLSD [EIF4G1_Y1253_N1257S] | 1.24 | 0.714 | 0.698 | 0.592 | 0.838 | 0.6 | 1.4 | 0.635 | 0.655 | 1.19 | 0.515 | 0.885 | 0.458
1.2 | 1.51 | 1.54 | AKKKMYSLKTK [AGXT_Y231_R233L] | 0.404 | 0.317 | 0.463 | 0.389 | 0.853 | 0.373 | 0.791 | 0.365 | 0.44 | 0.795 | 0.435 | 0.773 | 0.434
1.07 | 0.563 | 0.733 | ANNPLYKEVTS [ITGB3_Y773_A776V] | 0.695 | 0.506 | 0.409 | 0.495 | 0.58 | 0.486 | 0.797 | 0.428 | 0.551 | 0.691 | 0.481 | 0.584 | 0.467
0.764 | 0.768 | 0.425 | APVEDYGGGGG [B4GALT6_Y382_I379V] | 0.822 | 0.503 | 0.552 | 0.473 | 0.641 | 0.409 | 0.882 | 0.496 | 0.452 | 0.62 | 0.418 | 0.481 | 0.392
1.34 | 0.888 | 9.04 | ARLEYYENEKK [IRS1_Y47] | 1.08 | 0.686 | 0.506 | 0.592 | 0.733 | 0.491 | 1.01 | 0.595 | 0.482 | 0.849 | 0.571 | 0.808 | 0.528
1 | 1.05 | 0.763 | ASGKFYAMKIL [AKT3_Y174_YF] | 0.858 | 0.519 | 0.625 | 0.609 | 0.589 | 0.543 | 1.07 | 0.529 | 0.53 | 0.801 | 0.509 | 0.675 | 0.426
0.776 | 0.748 | 0.425 | ATDLAYFLVCK [ASL_Y375_R379C_YF] | 1.6 | 0.789 | 0.617 | 1.16 | 1.26 | 0.698 | 1.61 | 0.564 | 0.674 | 2.42 | 0.517 | 1.1 | 0.655
0.748 | 0.584 | 0.593 | AYGNLYGSRKQ [YIPF7_Y59] | 0.525 | 0.324 | 0.3 | 0.484 | 0.481 | 0.367 | 0.462 | 1.38 | 6.04 | 0.516 | 0.502 | 0.442 | 2.08

Second part, the sequence before the results:

Sequence | SH2 binding enrichment (Grb2 SH2) | SH2 binding enrichment (SHP2-C SH2) | SH2 binding enrichment (c-Src SH2) | phosphorylation enrichment (AncSZ) | phosphorylation enrichment (EPHB1) | phosphorylation enrichment (EPHB2) | phosphorylation enrichment (FGFR1) | phosphorylation enrichment (FGFR3) | phosphorylation enrichment (Fer (mouse)) | phosphorylation enrichment (Fes) | phosphorylation enrichment (Fyn) | phosphorylation enrichment (Hck) | phosphorylation enrichment (Jak2) | phosphorylation enrichment (MERTK) | phosphorylation enrichment (c-Abl (mouse)) | phosphorylation enrichment (c-Src)
ADIETYLLEKS [MYH7_Y266] | 0.755 | 0.88 | 0.405 | 1.04 | 0.466 | 0.582 | 0.484 | 0.635 | 0.431 | 1.12 | 0.554 | 0.551 | 0.871 | 0.46 | 0.746 | 0.731
ADRNHYRRFPR [YBX1_Y145_YF] | 0.601 | 0.55 | 0.488 | 0.8 | 0.452 | 0.54 | 0.539 | 0.508 | 0.603 | 0.71 | 0.519 | 0.556 | 0.654 | 0.552 | 0.871 | 0.689
AERKLYSGAQT [ZAP70_Y178] | 0.967 | 0.635 | 0.548 | 0.504 | 0.436 | 0.295 | 0.36 | 0.457 | 0.358 | 0.536 | 0.375 | 0.395 | 0.412 | 0.414 | 0.545 | 0.383
AGIVVYNIIGW [MYH7_Y588_D587V] | 0.792 | 0.669 | 0.61 | 1.14 | 0.919 | 0.633 | 0.506 | 0.807 | 0.726 | 1.57 | 2.31 | 2.35 | 1.37 | 1.17 | 1.51 | 2.14
AKKKMYSRKTK [AGXT_Y231] | 0.638 | 0.488 | 0.409 | 0.595 | 0.437 | 0.385 | 0.546 | 0.476 | 0.443 | 0.505 | 0.431 | 0.496 | 0.455 | 0.457 | 0.478 | 0.42
ALKKPYSVLYK [RPF2_Y59_G60S] | 1.72 | 1.65 | 1.38 | 0.603 | 0.399 | 0.433 | 0.385 | 0.406 | 0.44 | 0.674 | 0.36 | 0.474 | 0.467 | 0.436 | 0.516 | 0.454
ALTDNYMYLVI [HAGH_Y61] | 0.819 | 0.544 | 0.437 | 1.43 | 9.55 | 8.35 | 8.82 | 6.43 | 3.5 | 1.49 | 0.848 | 1.34 | 2.46 | 3.34 | 0.813 | 1.03
AMGPVYQAAAL [HYOU1_Y421_A419P] | 0.736 | 0.826 | 0.528 | 0.657 | 0.933 | 1.25 | 0.502 | 0.435 | 6.15 | 0.611 | 5.43 | 6.53 | 0.615 | 1.03 | 3.43 | 4.05
ARAHKYHGGGG [HBB_Y146_L142R] | 1.39 | 0.799 | 0.902 | 0.384 | 0.246 | 0.273 | 0.324 | 0.371 | 0.28 | 0.443 | 0.312 | 0.302 | 0.379 | 0.276 | 0.474 | 0.312
ASFPLYEPAKM [MKI67_Y340] | 0.889 | 0.707 | 0.535 | 0.789 | 18.1 | 21.1 | 0.426 | 0.493 | 16.3 | 1.52 | 4.36 | 8.34 | 0.484 | 3.18 | 0.635 | 2.97
ASMAKYFASEI [ACADSB_Y372_YF] | 0.75 | 0.677 | 0.497 | 0.721 | 0.484 | 0.436 | 0.709 | 0.781 | 0.449 | 0.842 | 0.504 | 0.384 | 0.817 | 0.416 | 0.474 | 0.35
ATDLAYFLVRE [ASL_Y375_K380E_YF] | 0.827 | 1.67 | 1.26 | 1.54 | 1.02 | 0.953 | 4.9 | 3.95 | 0.797 | 1.51 | 0.809 | 0.782 | 2.29 | 0.694 | 0.939 | 0.783
ATPKGYELDAS [OTC_Y223_P225L] | 0.878 | 0.665 | 0.627 | 0.966 | 0.442 | 0.551 | 0.466 | 0.557 | 0.465 | 0.903 | 0.478 | 0.442 | 1 | 0.491 | 0.697 | 0.405
AVARPYHIQKW [ACSBG1_Y677_A673V] | 1.85 | 1.31 | 1.27 | 0.643 | 0.381 | 0.358 | 0.468 | 0.506 | 0.332 | 0.584 | 0.391 | 0.402 | 0.461 | 0.362 | 0.573 | 0.401
AVLQPYIFVAT [CFTR_Y1014] | 0.65 | 0.545 | 0.329 | 1.56 | 0.84 | 0.804 | 1.2 | 1.41 | 0.674 | 1.69 | 0.606 | 0.586 | 1.84 | 0.55 | 0.978 | 0.701
AVLSLYASDRT [ACTA1_Y145_G148D] | 0.895 | 0.88 | 0.452 | 0.967 | 0.662 | 0.664 | 0.476 | 0.666 | 0.515 | 1.14 | 0.637 | 0.538 | 0.884 | 0.446 | 0.893 | 0.465
